Data reported in publication PMC7015683.

Target: insulin-like growth factor 2 receptor (IGF2R), native full-length, from bovine liver (bovine) (UniProt P08169)
Assay: pull-down

Chain of UniProt P08169 (P08169 45-2499): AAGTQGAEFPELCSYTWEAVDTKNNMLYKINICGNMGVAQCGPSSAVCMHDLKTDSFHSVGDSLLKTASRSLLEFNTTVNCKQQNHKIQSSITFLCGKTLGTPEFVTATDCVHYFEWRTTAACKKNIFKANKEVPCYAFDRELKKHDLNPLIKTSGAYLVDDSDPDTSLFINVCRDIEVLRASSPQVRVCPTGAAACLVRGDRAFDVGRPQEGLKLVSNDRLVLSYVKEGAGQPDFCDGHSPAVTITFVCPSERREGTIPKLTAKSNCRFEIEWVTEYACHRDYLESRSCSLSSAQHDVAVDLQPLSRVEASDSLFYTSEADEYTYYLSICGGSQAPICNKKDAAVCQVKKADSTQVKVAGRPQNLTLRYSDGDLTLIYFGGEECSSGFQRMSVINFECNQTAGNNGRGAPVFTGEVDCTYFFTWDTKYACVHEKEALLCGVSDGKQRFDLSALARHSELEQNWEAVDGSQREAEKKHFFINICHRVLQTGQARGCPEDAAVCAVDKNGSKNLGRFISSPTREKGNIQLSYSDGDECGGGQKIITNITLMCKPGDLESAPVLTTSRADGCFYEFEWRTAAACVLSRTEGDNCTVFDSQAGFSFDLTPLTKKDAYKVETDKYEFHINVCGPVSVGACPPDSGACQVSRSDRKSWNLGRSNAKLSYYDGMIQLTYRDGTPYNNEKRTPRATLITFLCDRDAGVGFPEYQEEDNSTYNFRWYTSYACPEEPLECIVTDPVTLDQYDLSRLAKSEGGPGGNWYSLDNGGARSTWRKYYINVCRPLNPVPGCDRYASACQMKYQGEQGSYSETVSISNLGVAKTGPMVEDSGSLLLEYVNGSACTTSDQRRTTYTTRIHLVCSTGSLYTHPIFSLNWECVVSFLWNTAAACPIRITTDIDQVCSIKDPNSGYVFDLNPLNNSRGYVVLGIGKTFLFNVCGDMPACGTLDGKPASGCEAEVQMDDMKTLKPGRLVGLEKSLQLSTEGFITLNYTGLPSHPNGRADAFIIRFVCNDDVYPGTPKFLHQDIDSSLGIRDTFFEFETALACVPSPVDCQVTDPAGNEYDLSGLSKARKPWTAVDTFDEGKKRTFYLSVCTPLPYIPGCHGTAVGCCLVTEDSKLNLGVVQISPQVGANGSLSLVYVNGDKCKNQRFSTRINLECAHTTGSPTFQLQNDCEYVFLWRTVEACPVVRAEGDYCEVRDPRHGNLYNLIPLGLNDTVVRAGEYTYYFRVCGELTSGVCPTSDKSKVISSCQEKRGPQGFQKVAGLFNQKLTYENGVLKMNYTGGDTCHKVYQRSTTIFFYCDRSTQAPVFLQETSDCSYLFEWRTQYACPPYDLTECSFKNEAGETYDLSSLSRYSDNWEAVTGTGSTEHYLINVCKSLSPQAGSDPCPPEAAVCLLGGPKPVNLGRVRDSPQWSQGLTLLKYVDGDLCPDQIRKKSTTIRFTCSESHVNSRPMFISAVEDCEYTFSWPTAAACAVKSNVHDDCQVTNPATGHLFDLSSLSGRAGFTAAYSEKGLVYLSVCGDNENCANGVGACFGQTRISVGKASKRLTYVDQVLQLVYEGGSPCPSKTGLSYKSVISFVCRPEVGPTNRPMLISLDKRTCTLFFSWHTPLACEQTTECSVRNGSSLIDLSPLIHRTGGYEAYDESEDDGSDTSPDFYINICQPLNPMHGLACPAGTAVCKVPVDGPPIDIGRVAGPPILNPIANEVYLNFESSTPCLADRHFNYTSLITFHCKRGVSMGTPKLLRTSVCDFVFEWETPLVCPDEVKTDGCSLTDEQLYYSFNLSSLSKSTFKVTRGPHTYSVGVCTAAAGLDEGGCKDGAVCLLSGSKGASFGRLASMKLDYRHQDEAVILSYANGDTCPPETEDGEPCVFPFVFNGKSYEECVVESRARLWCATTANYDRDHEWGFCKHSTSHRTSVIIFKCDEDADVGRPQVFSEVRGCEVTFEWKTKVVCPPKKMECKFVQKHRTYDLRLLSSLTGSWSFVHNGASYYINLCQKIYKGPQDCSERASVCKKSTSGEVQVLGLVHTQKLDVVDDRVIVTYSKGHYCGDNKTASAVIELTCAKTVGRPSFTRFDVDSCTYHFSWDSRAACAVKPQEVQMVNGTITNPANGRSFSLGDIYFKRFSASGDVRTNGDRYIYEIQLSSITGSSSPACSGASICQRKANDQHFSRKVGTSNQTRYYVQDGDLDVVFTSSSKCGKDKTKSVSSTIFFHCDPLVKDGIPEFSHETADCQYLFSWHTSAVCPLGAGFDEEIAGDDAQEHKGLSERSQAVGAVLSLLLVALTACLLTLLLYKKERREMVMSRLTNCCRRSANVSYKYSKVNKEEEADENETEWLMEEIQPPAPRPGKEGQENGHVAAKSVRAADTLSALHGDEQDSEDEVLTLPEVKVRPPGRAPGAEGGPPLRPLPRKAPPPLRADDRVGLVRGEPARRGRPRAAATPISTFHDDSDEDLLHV

Substance | percent reduction of binding against WT IGF2 [%]
Flag-IGF2 F28A V43D double mutant (ligand) | 20 to 30
Flag-IGF2 L53D mutant (ligand) | > 60
Flag-IGF2 F48D mutant (ligand) | 20 to 30
